Source: patent US20050100551A1

Tests used:
Herceptin [1] = assay: inhibition ELISA: herceptin preincubated with KLH alone, binding to SKBR3 membranes (Her-2/neu)
Herceptin [2] = assay: inhibition ELISA: herceptin preincubated with wild-type phage, binding to SKBR3 membranes (Her-2/neu)

Substance | Percent inhibition in comparison to uninhibited herceptin control (Herceptin [1]) [%] | Percent inhibition in comparison to uninhibited herceptin control (Herceptin [2]) [%]
KLH (from UniProt Q10583 17-3414) | 0 | 
Wild-type phage |  | 3
